# Target: FGFR1 (UniProt P11362)
# Experiment: phosphorylation enrichment, bacterial display (enrichment ratio); higher = better substrate or ligand; peptides without Tyr show the background
# 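Note: 11-residue human phosphosite peptides and single-mutation variants displayed on the E. coli surface, counted by deep sequencing, each peptide's frequency after selection divided by its frequency in the unselected input library; frequency after pTyr selection over input frequency; kinase dosed for 20-30% of maximal phosphorylation in three min.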
# Chain of FGFR1 (P11362 whole entry, looked up): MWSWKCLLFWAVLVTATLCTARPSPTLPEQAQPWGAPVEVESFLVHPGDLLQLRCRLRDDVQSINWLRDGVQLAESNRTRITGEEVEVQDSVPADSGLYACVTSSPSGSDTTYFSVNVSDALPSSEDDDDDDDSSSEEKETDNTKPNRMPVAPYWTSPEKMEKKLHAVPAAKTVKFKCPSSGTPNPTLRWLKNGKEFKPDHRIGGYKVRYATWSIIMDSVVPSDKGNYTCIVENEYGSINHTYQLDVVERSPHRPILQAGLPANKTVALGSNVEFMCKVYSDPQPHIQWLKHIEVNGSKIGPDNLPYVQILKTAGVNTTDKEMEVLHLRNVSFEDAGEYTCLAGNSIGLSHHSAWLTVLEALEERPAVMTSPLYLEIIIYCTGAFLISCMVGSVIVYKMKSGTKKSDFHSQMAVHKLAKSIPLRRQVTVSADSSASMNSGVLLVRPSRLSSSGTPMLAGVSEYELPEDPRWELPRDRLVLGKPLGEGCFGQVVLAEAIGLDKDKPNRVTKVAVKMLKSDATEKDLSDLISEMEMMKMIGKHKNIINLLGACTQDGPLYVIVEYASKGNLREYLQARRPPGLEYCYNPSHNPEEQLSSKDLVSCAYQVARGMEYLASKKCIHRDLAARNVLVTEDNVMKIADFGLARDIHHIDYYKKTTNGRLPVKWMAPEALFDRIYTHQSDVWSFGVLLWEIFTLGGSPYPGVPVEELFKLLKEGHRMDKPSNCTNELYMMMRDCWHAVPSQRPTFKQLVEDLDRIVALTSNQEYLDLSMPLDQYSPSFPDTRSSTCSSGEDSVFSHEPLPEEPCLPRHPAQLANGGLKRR
row,Sequence,phosphorylation enrichment
1,TFEFRYLEDRD [CNOT3_Y746_YF],0.599
2,RWHEGYRQTPK [CD44_Y412],0.405
3,YPKVRYHWLVL [APTX_Y214_A212V],0.681
4,DTKPVYQNLRQ [BOD1_Y82_A81V],0.511
5,DTQNSYWCATS [TSC1_Y304_G305W],1.07
6,GLDGSYLLRDS [SH2D1A_Y29],0.426
7,ESVNTYLQTSP [NAT1_Y208_M205V],0.386
8,PSAEGYQDVRD [ABLIM1_Y439],0.571
9,MSSHHCDFKKF [ZNF445_Y428_Y428C_YF],0.437
10,NLTVNYKKNLI [SQOR_Y259],0.427
11,SPPEVYAIMRG [NTRK1_Y757_C752S],0.506
12,EVEFQYPFRLH [SYP_Y73_E72Q],0.475
13,FHKALYTVRSY [PDE6C_Y266],0.465
14,DLQDEYDFKRK [STAT1_Y170_C174R],0.472
15,IVTLKYPIEHG [ACTB_Y69_L65V],0.523
16,EILLSYPRTGF [TGM1_Y365_L366P_YF],0.488
17,EIASHYRHLLR [ZBTB46_Y14_T11A],0.416

row,Sequence,phosphorylation enrichment
1,DRLASYLDKVR [KRT10_Y160],0.435
2,LLSVAYQNVVG [YWHAG_Y49_K50Q],1.34
3,MALDIYRASYY [ALK_Y1278_R1275L],0.655
4,KIIRWYVSSEG [ANK2_Y3907_R3906W],0.55
5,LEAVSYSSPFA [RNLS_Y190_R193P_YF],1.12
6,AAVDTVCRHNF [HLA-DRB1_Y107_Y107V_YF],0.499
7,RRIHSYRGYLW [VHL_Y112_H115Y],0.581
8,LLDGEYFTLQI [TP53_Y327_P322L],10.9
9,RVNSAYQDKVS [ACAN_Y100],0.513
10,LGGAMYFLEAE [PKHD1_Y452_YF],0.62
11,NPSFNYEIVNR [DYNC1H1_Y3379_YF],0.488
12,HFEFKYVINAI [MAOA_Y268_C266F_YF],0.391
13,QDGYSYLSRQM [LDLR_Y847_P848L],0.995
14,TEQDPYNSIVR [MMUT_Y364_N366S],0.697
15,YTHSDYQYGQR [PKP2_Y166_S169G],0.531
16,LITILYIGFLG [KCNQ1_Y267_T265I],0.72

# Target: FGFR3 (UniProt P22607)
# Sequence (P22607 whole entry, looked up): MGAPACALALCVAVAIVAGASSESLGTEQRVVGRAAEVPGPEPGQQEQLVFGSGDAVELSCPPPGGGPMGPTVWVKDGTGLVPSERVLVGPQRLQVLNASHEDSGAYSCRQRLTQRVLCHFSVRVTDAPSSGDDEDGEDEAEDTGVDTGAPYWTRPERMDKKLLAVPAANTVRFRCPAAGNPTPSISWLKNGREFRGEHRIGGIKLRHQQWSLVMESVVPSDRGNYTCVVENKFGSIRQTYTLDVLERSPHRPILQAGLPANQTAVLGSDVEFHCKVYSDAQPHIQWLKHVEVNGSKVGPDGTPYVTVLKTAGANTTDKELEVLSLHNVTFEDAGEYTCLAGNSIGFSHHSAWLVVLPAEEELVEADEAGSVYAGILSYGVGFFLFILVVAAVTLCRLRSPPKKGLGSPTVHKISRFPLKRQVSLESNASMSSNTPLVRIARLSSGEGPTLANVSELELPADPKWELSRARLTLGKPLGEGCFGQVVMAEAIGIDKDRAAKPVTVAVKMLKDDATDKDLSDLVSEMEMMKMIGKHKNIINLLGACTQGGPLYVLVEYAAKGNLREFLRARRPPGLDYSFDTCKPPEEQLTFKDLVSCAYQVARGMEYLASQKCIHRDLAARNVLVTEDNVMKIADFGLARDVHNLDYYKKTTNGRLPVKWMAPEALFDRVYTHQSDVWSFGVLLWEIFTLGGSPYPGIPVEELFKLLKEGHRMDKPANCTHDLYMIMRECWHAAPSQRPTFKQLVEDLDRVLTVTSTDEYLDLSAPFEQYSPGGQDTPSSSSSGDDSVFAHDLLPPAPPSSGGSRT
# Experiment: as above
row,Sequence,phosphorylation enrichment
1,TFEFRYLEDRD [CNOT3_Y746_YF],0.826
2,RWHEGYRQTPK [CD44_Y412],0.595
3,YPKVRYHWLVL [APTX_Y214_A212V],1.03
4,DTKPVYQNLRQ [BOD1_Y82_A81V],0.456
5,DTQNSYWCATS [TSC1_Y304_G305W],0.832
6,GLDGSYLLRDS [SH2D1A_Y29],0.464
7,ESVNTYLQTSP [NAT1_Y208_M205V],0.577
8,PSAEGYQDVRD [ABLIM1_Y439],0.699
9,MSSHHCDFKKF [ZNF445_Y428_Y428C_YF],0.417
10,NLTVNYKKNLI [SQOR_Y259],0.461
11,SPPEVYAIMRG [NTRK1_Y757_C752S],0.524
12,EVEFQYPFRLH [SYP_Y73_E72Q],0.709
13,FHKALYTVRSY [PDE6C_Y266],0.576
14,DLQDEYDFKRK [STAT1_Y170_C174R],0.643
15,IVTLKYPIEHG [ACTB_Y69_L65V],0.702
16,EILLSYPRTGF [TGM1_Y365_L366P_YF],0.555
17,EIASHYRHLLR [ZBTB46_Y14_T11A],0.528

row,Sequence,phosphorylation enrichment
1,DRLASYLDKVR [KRT10_Y160],0.471
2,LLSVAYQNVVG [YWHAG_Y49_K50Q],1.08
3,MALDIYRASYY [ALK_Y1278_R1275L],0.713
4,KIIRWYVSSEG [ANK2_Y3907_R3906W],0.784
5,LEAVSYSSPFA [RNLS_Y190_R193P_YF],0.661
6,AAVDTVCRHNF [HLA-DRB1_Y107_Y107V_YF],0.533
7,RRIHSYRGYLW [VHL_Y112_H115Y],0.915
8,LLDGEYFTLQI [TP53_Y327_P322L],8.15
9,RVNSAYQDKVS [ACAN_Y100],0.567
10,LGGAMYFLEAE [PKHD1_Y452_YF],1.51
11,NPSFNYEIVNR [DYNC1H1_Y3379_YF],0.666
12,HFEFKYVINAI [MAOA_Y268_C266F_YF],0.854
13,QDGYSYLSRQM [LDLR_Y847_P848L],0.664
14,TEQDPYNSIVR [MMUT_Y364_N366S],0.665
15,YTHSDYQYGQR [PKP2_Y166_S169G],0.606
16,LITILYIGFLG [KCNQ1_Y267_T265I],1.31

# Test system: c-Abl (mouse)
# Experiment: as above
row,Sequence,phosphorylation enrichment
1,TFEFRYLEDRD [CNOT3_Y746_YF],0.762
2,RWHEGYRQTPK [CD44_Y412],0.418
3,YPKVRYHWLVL [APTX_Y214_A212V],1.15
4,DTKPVYQNLRQ [BOD1_Y82_A81V],0.708
5,DTQNSYWCATS [TSC1_Y304_G305W],0.633
6,GLDGSYLLRDS [SH2D1A_Y29],0.471
7,ESVNTYLQTSP [NAT1_Y208_M205V],0.655
8,PSAEGYQDVRD [ABLIM1_Y439],0.688
9,MSSHHCDFKKF [ZNF445_Y428_Y428C_YF],0.529
10,NLTVNYKKNLI [SQOR_Y259],0.495
11,SPPEVYAIMRG [NTRK1_Y757_C752S],0.609
12,EVEFQYPFRLH [SYP_Y73_E72Q],0.885
13,FHKALYTVRSY [PDE6C_Y266],0.775
14,DLQDEYDFKRK [STAT1_Y170_C174R],0.588
15,IVTLKYPIEHG [ACTB_Y69_L65V],0.871
16,EILLSYPRTGF [TGM1_Y365_L366P_YF],0.515
17,EIASHYRHLLR [ZBTB46_Y14_T11A],0.415

row,Sequence,phosphorylation enrichment
1,DRLASYLDKVR [KRT10_Y160],0.519
2,LLSVAYQNVVG [YWHAG_Y49_K50Q],0.832
3,MALDIYRASYY [ALK_Y1278_R1275L],2.99
4,KIIRWYVSSEG [ANK2_Y3907_R3906W],0.747
5,LEAVSYSSPFA [RNLS_Y190_R193P_YF],2.62
6,AAVDTVCRHNF [HLA-DRB1_Y107_Y107V_YF],0.937
7,RRIHSYRGYLW [VHL_Y112_H115Y],0.375
8,LLDGEYFTLQI [TP53_Y327_P322L],3.69
9,RVNSAYQDKVS [ACAN_Y100],1.06
10,LGGAMYFLEAE [PKHD1_Y452_YF],0.784
11,NPSFNYEIVNR [DYNC1H1_Y3379_YF],0.588
12,HFEFKYVINAI [MAOA_Y268_C266F_YF],1.26
13,QDGYSYLSRQM [LDLR_Y847_P848L],0.541
14,TEQDPYNSIVR [MMUT_Y364_N366S],0.661
15,YTHSDYQYGQR [PKP2_Y166_S169G],0.492
16,LITILYIGFLG [KCNQ1_Y267_T265I],2.13

# Target: MERTK (UniProt Q12866)
# Sequence (Q12866 whole entry, looked up): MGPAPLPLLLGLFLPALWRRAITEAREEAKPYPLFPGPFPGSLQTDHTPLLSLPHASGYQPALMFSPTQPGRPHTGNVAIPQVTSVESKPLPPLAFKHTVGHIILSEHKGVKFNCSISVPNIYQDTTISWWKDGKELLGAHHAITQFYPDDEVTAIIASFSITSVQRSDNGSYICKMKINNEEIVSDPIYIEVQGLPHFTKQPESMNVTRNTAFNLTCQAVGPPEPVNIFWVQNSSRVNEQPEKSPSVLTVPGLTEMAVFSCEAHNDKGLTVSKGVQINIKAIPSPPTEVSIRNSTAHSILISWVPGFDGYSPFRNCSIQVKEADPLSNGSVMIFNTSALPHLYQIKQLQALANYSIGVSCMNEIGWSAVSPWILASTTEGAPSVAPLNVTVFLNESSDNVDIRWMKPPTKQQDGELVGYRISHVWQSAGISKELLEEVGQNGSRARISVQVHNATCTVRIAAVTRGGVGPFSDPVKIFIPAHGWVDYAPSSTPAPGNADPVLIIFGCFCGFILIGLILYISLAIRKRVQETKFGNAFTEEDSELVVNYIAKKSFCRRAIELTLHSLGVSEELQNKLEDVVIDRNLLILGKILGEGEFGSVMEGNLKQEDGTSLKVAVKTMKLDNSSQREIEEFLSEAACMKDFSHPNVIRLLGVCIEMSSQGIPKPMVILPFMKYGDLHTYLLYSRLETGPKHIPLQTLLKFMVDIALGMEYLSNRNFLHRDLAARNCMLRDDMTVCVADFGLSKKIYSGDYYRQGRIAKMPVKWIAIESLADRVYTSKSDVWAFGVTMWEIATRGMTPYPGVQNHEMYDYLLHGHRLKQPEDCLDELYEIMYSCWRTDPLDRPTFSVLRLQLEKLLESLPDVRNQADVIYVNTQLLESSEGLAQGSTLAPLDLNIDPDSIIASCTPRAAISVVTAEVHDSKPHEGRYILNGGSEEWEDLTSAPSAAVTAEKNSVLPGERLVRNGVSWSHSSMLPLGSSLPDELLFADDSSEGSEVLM
# Experiment: as above
row,Sequence,phosphorylation enrichment
1,TFEFRYLEDRD [CNOT3_Y746_YF],0.398
2,RWHEGYRQTPK [CD44_Y412],0.356
3,YPKVRYHWLVL [APTX_Y214_A212V],0.448
4,DTKPVYQNLRQ [BOD1_Y82_A81V],0.533
5,DTQNSYWCATS [TSC1_Y304_G305W],1.36
6,GLDGSYLLRDS [SH2D1A_Y29],0.413
7,ESVNTYLQTSP [NAT1_Y208_M205V],0.588
8,PSAEGYQDVRD [ABLIM1_Y439],0.348
9,MSSHHCDFKKF [ZNF445_Y428_Y428C_YF],0.474
10,NLTVNYKKNLI [SQOR_Y259],0.435
11,SPPEVYAIMRG [NTRK1_Y757_C752S],1.82
12,EVEFQYPFRLH [SYP_Y73_E72Q],0.443
13,FHKALYTVRSY [PDE6C_Y266],0.414
14,DLQDEYDFKRK [STAT1_Y170_C174R],0.355
15,IVTLKYPIEHG [ACTB_Y69_L65V],0.481
16,EILLSYPRTGF [TGM1_Y365_L366P_YF],0.411
17,EIASHYRHLLR [ZBTB46_Y14_T11A],0.421

row,Sequence,phosphorylation enrichment
1,DRLASYLDKVR [KRT10_Y160],0.379
2,LLSVAYQNVVG [YWHAG_Y49_K50Q],0.519
3,MALDIYRASYY [ALK_Y1278_R1275L],0.674
4,KIIRWYVSSEG [ANK2_Y3907_R3906W],0.415
5,LEAVSYSSPFA [RNLS_Y190_R193P_YF],0.658
6,AAVDTVCRHNF [HLA-DRB1_Y107_Y107V_YF],0.488
7,RRIHSYRGYLW [VHL_Y112_H115Y],0.488
8,LLDGEYFTLQI [TP53_Y327_P322L],1.28
9,RVNSAYQDKVS [ACAN_Y100],0.498
10,LGGAMYFLEAE [PKHD1_Y452_YF],0.709
11,NPSFNYEIVNR [DYNC1H1_Y3379_YF],0.387
12,HFEFKYVINAI [MAOA_Y268_C266F_YF],0.678
13,QDGYSYLSRQM [LDLR_Y847_P848L],1.26
14,TEQDPYNSIVR [MMUT_Y364_N366S],0.4
15,YTHSDYQYGQR [PKP2_Y166_S169G],0.424
16,LITILYIGFLG [KCNQ1_Y267_T265I],1.43

# — the supplement of paper PMC10065799, “High-throughput profiling of sequence recognition by tyrosine kinases and SH2 domains using bacterial peptide display” (eLife, 2023)
